Experimental data as given in the supplement of paper PMC10567573.

B1: PLD5 (parent)
chain: VTYMNMTAYNKGRLQSSFWIVDKQ
B2: HSP90AB1 (parent)
chain: YHTSQSGDEMTSLSEYVSRMKETQ

Variants of: B1
Experiment: protein stability index of a GFP-peptide fusion (GPS, HEK-293T) (PSI 1-6); higher = more stable
Settings: c terminus: a fixed tail appended
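Note: lentivirally expressed fusions sorted by FACS into six bins by GFP to DsRed ratio, PSI derived from sequencing read proportions per bin multiplied by bin number.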

Protein stability index of substitutions, site by site:
M4: H 1.89, C 3.5, E 2.3, Q 2.18, T 2.44, F 3.33, V 3.21, K 2.05, D 1.89, Y 2.31, A 1.98, R 1.34, S 3.45, N 1.5, G 2.13, P 2.09, L 1.68
Y9: A 1.62, E 2.11, F 3.22, R 1.58, I 2.59, G 2.11, S 1.83, D 2.58, K 2.02, L 1.92, C 2.55, H 1.75, W 3.74, Q 1.33, M 2.17, V 1.81, T 2.06, N 1.78, P 1.1
N5: D 1.45, T 2.08, P 1.49, E 2.76, A 3.48, F 2.69, L 3, R 3.38, W 3.13, M 3.53, I 2.99
M6: N 1.76, D 2.13, I 2.91, T 1.58, V 2.89, E 1.65, K 1.58, G 2.46, H 1.93, F 2.16, R 2.06, P 1.6, S 1.87, Y 2.08, L 3.25, C 2.61, Q 2.1, A 1.18
G12: D 3.02, R 1.58, A 1.89, K 2.31, S 2.38, F 3.77, V 1.91, T 1.8, C 1.53, Q 1.37, H 1.15, Y 2.49, M 2.18, L 4.29, E 1.8
N10: K 1.89, W 3.08, E 3.78, H 1.97, D 2.75, A 2.67, L 1.28, P 2, Y 2.25, T 2.49, Q 2.97, S 1.95, R 2.25, M 3.39, C 2.87
Y3: N 3.08, T 1.66, K 1.62, E 3.13, H 1.67, P 2.06, W 3.91, A 1.99, S 2.51, C 1.55, V 2.33, Q 1.76, G 1.59, D 3.2, F 2.88, R 2.4, M 2.14
V1: N 2.88, T 1.54, P 2.11, D 1.78, A 1.44, Y 3.25, G 2.21, Q 1.9, E 2.35, S 2.17, H 1.61, L 1.97, W 2.46, R 1.77, M 2.45, K 2.73, C 1.49
L14: Y 2.04, F 1.93, S 2.72, M 2.88, V 1.84, A 2.63, Q 1.25, W 2.63, D 2.06, R 2.06, N 1.29, T 2.14, P 2.86, K 2.29, E 1.62
S17: L 1.12, H 1.93, G 1.73, C 2.28, K 2.12, D 2.15, A 2.28
R13: Q 2.13, L 1.51, W 4.66, N 1.52, K 1.27, M 2.14, H 3.22, G 1.6, I 2.15, A 3.25, E 1.73, S 1.59, D 3.06, Y 2.93, T 1.48
K11: H 1.95, R 1.96, T 2.14, A 1.36, W 1.68, N 3.07, P 2.17, Q 1.84, L 3.44, E 3.5, S 2.96, G 1.65, D 1.96, I 3.18, Y 3.58
T2: H 2.6, I 1.76, M 2.88, G 2.08, P 1.68, A 2.55, S 1.87, K 2.52, W 1.4, N 1.29, D 1.67, Q 2.08, R 1.91, E 1.87, C 2.25
A8: N 2.29, D 1.1, Y 2.39, R 1.9, F 2.41, P 3.56, G 2.11, M 2.46, V 3.16, H 1.93, K 1.95, Q 1.5, S 2.24, L 2.22, E 1.46, T 2.02, I 3.64, C 2.68
Q15: K 1.03, M 2.46, R 3.58, E 1.94, H 2.42, L 2.49, T 4.18, I 2.03, G 2.44, F 1.61, W 2.58, P 2.48, N 3.18, D 1.63, A 3.27, V 4.47
S16: K 1.63, N 1.21, P 1.1, Y 4.23, D 2.08, T 3.01, W 3.41, Q 2.42, A 3.62, F 3.61, H 2.01, R 1.28, I 2.81
T7: V 2.61, L 2.3, D 1.87, A 3.57, N 2.46, S 2.21, E 1.02, P 1.22, H 2.05, F 1.89, Q 2.36

Variants of: B2
Experiment: as above
Settings: c terminus: a fixed tail appended

Protein stability index, by site and new letter:
V17: P 3.86, S 3.87, F 3.23
Q5: D 4.45, G 3.84
S4: C 3.56, M 3.61, W 1.96, Y 2.21, D 3.49, K 2.07
Y16: W 2.69, T 4.02, P 4.02
H2: A 2.87, L 4.15, Y 3.15
T11: I 3.12, K 4.58
D8: S 3.77, A 3.53, P 3
S18: W 1.77, D 4, N 3.31, V 3.23, I 3, A 3.72, M 3.41, Y 2.56
S6: H 2.91, K 3.03, Y 2.06, D 4.53, Q 2.83
G7: P 3.74, H 3.65, L 3.61
R19: S 3.8, W 3.46, Q 4.15
T3: D 4.53, A 3.26, S 3.58, P 2.81, W 1.53, G 3.41
S14: C 3.44, F 3.05
E22: Y 3.44
E9: M 2.52
Q24: S 3.61, L 2.98
Y1: W 4.2, F 3.68, G 4.26, H 4.97, L 4.84
K21: Y 2.61, F 2.84
M10: F 3.06, Y 3.2, N 4.17, A 4.01
S12: K 3.12, G 3.75, P 3.52, V 2.99
E15: W 1.48, T 2.79
M20: W 2.47, V 3.92, F 2.89, K 4.11
T23: R 3.76, Y 3.16, V 4.14, Q 3.9, N 3.88, H 3.59
